The text below walks through data of the supplement of paper PMC12764529.

Series [1] is described as follows: folding stability dG unfold (combined trypsin and chymotrypsin); higher = more stable. The essentials: (§1)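 Designed mini-proteins with no cysteine and under 80 residues were kept only if AlphaFold2 dimer inter-PAE was above 15. In a PA-tagged cDNA display construct, they were digested with trypsin and chymotrypsin and then sequenced. K50 was inferred by Bayesian fitting of counts, and unfolding free energy was derived per protease or combined against a sequence-predicted unfolded-state K50 and a shared folded-state K50.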

Series [2] can be described thus: folding stability dG unfold from chymotrypsin proteolysis; higher = more stable. Put shortly: as §1

± gives the half width of the 95% confidence interval.

Take “SAGGSAMKTSLSRSTSTDPSDPNVTYKTTTTFLPDNTVLTNTTTTTRVGSSDVTTTTTTTTPIPAASAGGSA [r15_553_JUSTAS]”: the “folding stability dG unfold” value in series [1] is 0.135 ± 0.18 kcal/mol; in series [2], 0.409 ± 0.18 kcal/mol.

As for “SAGGSAMKVEKEGDKVTIIVNAPESLNDKKVLTEKIKKAIEENKNKEVEIIAPPKYKPYAEETIKNSAGGSA [r15_89_JUSTAS]”, the “folding stability dG unfold” value in series [1] was -0.558 ± 0.39 kcal/mol; in series [2], -0.217 ± 0.52 kcal/mol.

As to “SAGGSAMPSPITVTTFPGGTARLVEFPDGSTAVVEIVEEGPERVLVTTTTPPDGVPTTSVVPAAELSAGGSA [r15_941_JUSTAS]”, the “folding stability dG unfold” value in series [1] was -0.537 ± 0.21 kcal/mol; in series [2], -0.0657 ± 0.072 kcal/mol.

As to “SAGGSAMSRTITVEITDPRNGKKLKNVVIDVPEDEDISDEEILKKIGIPEKEAKNIKVSKTTEELESAGGSA [r15_665_JUSTAS]”, the “folding stability dG unfold” value in series [1] worked out at 0.169 ± 0.19 kcal/mol; in series [2], 0.365 ± 0.17 kcal/mol.

Regarding “SAGGSAMTPQTLTLPDGTQVTVYYDPSTGKYTITTTTTTPTAQGTGPTTTTTKTVDSEEELLAYLSSAGGSA [r15_31_JUSTAS]”, the “folding stability dG unfold” value is 4.5 ± 0.2 kcal/mol in series [1] and 4.37 ± 0.13 kcal/mol in series [2].

Take “SAGGSAMVVVKITNPNGEKIEIEIEAETEEEAKKAAEELAKKLPKNVKVEVVKVEKVEVKDGKILKSAGGSA [r15_469_TrROS_Hall]”: the figures for the “folding stability dG unfold” value in series [1] and in series [2] were under -1 kcal/mol and -0.919 ± 0.74 kcal/mol, respectively.

Regarding “SAGGSANAEEIADWLQDRGFKEVEIEKDPENGNVTVEIRNPGGYEWELTINPKNPKITEIEPRPKKSAGGSA [r15_648_TrROS]”, the “folding stability dG unfold” value is -0.523 ± 0.42 kcal/mol in series [1] and 0.0797 ± 0.097 kcal/mol in series [2].

As for “SAGGSAPVIVKEASLEEIKELKKKGVKKIILVEKNPEIAEKIKKEFEKEDDIPIETVSEEEAKKLKSAGGSA [r15_243_TrMRF]”, the “folding stability dG unfold” value in series [1] is -0.718 ± 0.28 kcal/mol; in series [2], -0.294 ± 0.13 kcal/mol.

With “SAGGSARVVTAVARHPNSTEATLTVTDSGAAGGTSEITFASPEDLLAAIRNLPASVASVSVRPLLPSAGGSA [r15_589_TrMRF]”, the “folding stability dG unfold” value in series [1] came out at 0.422 ± 0.092 kcal/mol; in series [2] it was 0.806 ± 0.028 kcal/mol.

On to “SAGGSASPELQKRIKDALQEENPDYPVTVDEVDPKNNTIMITFNSPWHQKRIEKALKEDGIKITIYSAGGSA [r15_196_TrROS]”, for which the “folding stability dG unfold” value in series [1] is -0.618 ± 0.27 kcal/mol; in series [2], -0.0514 ± 0.38 kcal/mol.

With “SAGGSAVGYYVETEIEKVEEKTYTFKPDGSPLKYFKNVKKNIKVKKVYVVKPTPDNSVIVDPNIPLSAGGSA [r15_162_JUSTAS]”, the “folding stability dG unfold” value is under -1 kcal/mol in series [1] and -0.618 ± 0.46 kcal/mol in series [2].

In the case of “SAGGSDPVSVSTEGGNTYVTVGDTPVLRLSKGKPEPPVLVTLPNGEVIEMPRSEALARDPSTIEFTPGSAGG [r13_802_JUSTAS]”, the “folding stability dG unfold” value in series [1] is -0.118 ± 0.12 kcal/mol; in series [2], 0.368 ± 0.042 kcal/mol.

For “SAGGSITTEKSLPETNLTLKTTYEGDTETVEIYHHPESDTPVLLAKETVTFSPDGSVSRKSTVVKIESAGGS [r8_69_JUSTAS]”, the “folding stability dG unfold” value in series [1] is -0.483 ± 0.27 kcal/mol; in series [2], -0.0855 ± 0.17 kcal/mol.

For “SAGGSMETTTLSSTPAELIATVEAEAAAAGKTISEITVTEDPATGLATVPVTIEITPAPALAPAARRSAGGS [r16_584_JUSTAS]”, the “folding stability dG unfold” value was 0.249 ± 0.21 kcal/mol in series [1] and 0.722 ± 0.065 kcal/mol in series [2].

On to “SAGGSMKVEYDESTGVTTITLPDGSTITFPAEDTGLTVEASLEDDTLTITVKDPNNPVPLETRTIPSSSAGG [r13_938_JUSTAS]”, for which the “folding stability dG unfold” value is 0.393 ± 0.18 kcal/mol in series [1] and 0.935 ± 0.036 kcal/mol in series [2].

For “SAGGSNKNSPEDQKRKQQPPQPKVRTIPGPLSEDQIKNLLDNGQPIIIEGPDGEWWVIKNNEIEPISAGGSA [r2_33_TrROS]”, the “folding stability dG unfold” value in series [1] is -0.0552 ± 0.24 kcal/mol; in series [2] it was 0.255 ± 0.14 kcal/mol.

On to “SAGGSPPYVNISMRRTPNGNMPLKVEIYDKDNEPVAEQEIEIPDMEPGEQWNFTIPIEPNMKLRIESAGGSA [r2_288_TrROS]”, for which the “folding stability dG unfold” value in series [1] was -0.132 ± 0.12 kcal/mol; in series [2], 0.456 ± 0.13 kcal/mol.

In the case of “SAGGSVLVTLTNPADGTPVTLPTPAEEAEAILASGDTAALEARHPGRPVAAVTVDPVSPRPPVPPGLASAGG [r13_629_JUSTAS]”, the “folding stability dG unfold” value was -0.651 ± 0.38 kcal/mol in series [1] and 0.223 ± 0.095 kcal/mol in series [2].

With “SAGGSVTLPPEEARAYAEAHPDRDLVLSMRPDDSTVTLELSVDPAAPGALSVRRREVFDPAGNATVVDSAGG [r13_481_JUSTAS]”, the “folding stability dG unfold” value in series [1] is -0.182 ± 0.15 kcal/mol; in series [2], 0.308 ± 0.13 kcal/mol.

“SAGGSVVTGVDEEELRAVAEALRAAGHTLADVRIERYPEDGTYRMTVTLVDPATAAPLADVLMVAKASAGGS [r16_750_JUSTAS]”: the entries for the “folding stability dG unfold” value in series [1] and in series [2] were 0.312 ± 0.15 kcal/mol and 0.887 ± 0.13 kcal/mol, respectively.

As to “SAGGTIEEIRDQLKNMPPGYHVDLKIPNGRSHSFGSLEDIEDLPITNPNGRKIEITEVQPMPPPDEQSAGGS [r16_680_TrROS]”, the entries for the “folding stability dG unfold” value in series [1] and in series [2] were -0.703 ± 0.68 kcal/mol and 0.195 ± 0.16 kcal/mol, respectively.

For “SAGGTTTRTTVYFDDGKVYELTDPEEVEKTIKEKLGKNYKIVSEEEYTEPSPDGPPLPARRLKLKKKSAGGS [r16_408_JUSTAS]”, the “folding stability dG unfold” value is under -1 kcal/mol in series [1] and -0.795 ± 0.33 kcal/mol in series [2].

With “SAGGVIGTRKKVNKIEKPVPEGATTTPSIIGNTTILTTTAPDGSTVTVTLTKTEPIPGKPDVSEKYEASAGG [r13_804_JUSTAS]”, the “folding stability dG unfold” value in series [1] was -0.265 ± 0.12 kcal/mol; in series [2] it was 0.11 ± 0.042 kcal/mol.

Take “SAGKTIYIQGPLDELRKLPEIKEVEKTGNHWTLELPNVPIHIEIEPPPPVPVVPPEMPKEQMKEYMKKMSAG [r5_2_TrROS]”: the “folding stability dG unfold” value came to 0.316 ± 0.37 kcal/mol in series [1] and 0.646 ± 0.32 kcal/mol in series [2].

For the sequence “SAGMDEYIRELIEKLPSENPSTSPITYRDKNIEAVTYYPSTNTTTFHFPGGEVISASPSTSIEEILKELSAG [r14_59_JUSTAS]”, the “folding stability dG unfold” value in series [1] is -0.193 ± 0.19 kcal/mol; in series [2], 0.198 ± 0.22 kcal/mol.

For “SAGMEEILEAAREAIEAGLTVRIEVTFKDGKKEEIEIEVESLEELLEALEKLDEIESVKIEVLAPGEEPSAG [r5_956_TrROS_Hall]”, the “folding stability dG unfold” value in series [1] came out at 3.61 ± 0.95 kcal/mol; in series [2] it was 2.95 ± 0.15 kcal/mol.

On to “SAGMITLEKTVPLSEATPEKAKEIAEELLEKLKKEGLPEGLEKTSIEITELPGDELIVKVPTKIVSKESAGG [r19_87_JUSTAS]”, for which the “folding stability dG unfold” value is under -1 kcal/mol in series [1] and -0.556 ± 0.14 kcal/mol in series [2].

Regarding “SAGMITRTITTVDPVDPALVAAISPDLVFPDGSTVSRDGDRLVITTPVTLALPPSPDPAGQLVLPTAASAGG [r19_148_JUSTAS]”, the “folding stability dG unfold” value in series [1] was -0.00544 ± 0.17 kcal/mol; in series [2] it was 0.483 ± 0.087 kcal/mol.

In the case of “SAGMKTLTGPPEVLEELVEKALKENPNAKTVTIVDGDKSVTVPKDEEVEFLEPAPQPDGEPYVTIEILESAG [r5_130_JUSTAS]”, the “folding stability dG unfold” value worked out at 0.101 ± 0.13 kcal/mol in series [1] and 0.669 ± 0.048 kcal/mol in series [2].

Consider “SAGMKVVRTRTVWADDSDNPTPLAPEVELVRDAPPTFPLPVTVTTPDGRPYTGTLIALDPDREGLVLGGSAG [r5_735_TrMRF]”, for which the “folding stability dG unfold” value was -0.29 ± 0.19 kcal/mol in series [1] and 0.254 ± 0.17 kcal/mol in series [2].

Take “SAGMMRVEVFGDGELLEVTELDGDTVEVPVPPERHRVRVFAPGDDRAAEAEVDPAKGVVVLKVPADARISAG [r5_469_TrMRF]”: the “folding stability dG unfold” value in series [1] was -0.821 ± 0.38 kcal/mol; in series [2], -0.197 ± 0.24 kcal/mol.

On to “SAGMPVLVSAPIPLARGPDGVARIDPALVRALAEAAGFTGRVESVEVRPLPDSYLVAVRLPDSVLLGESAGG [r19_398_TrMRF]”, for which the “folding stability dG unfold” value in series [1] was -0.31 ± 0.11 kcal/mol; in series [2], 0.672 ± 0.077 kcal/mol.
